# Experimental data taken from ChEMBL document CHEMBL1122090, “Species- or isozyme-specific enzyme inhibitors. 7. Selective effects in inhibitions of rat adenylate kinase isozymes by adenosine 5'-phosphate derivatives” (J Med Chem, 1982).
# Experiments:
# [1] = substrate: CCC[C@H](OP(=O)(O)O)[C@H]1OC(n2cnc3c(N)ncnc32)[C@H](O)[C@@H]1O; experiment: (§1) Concentration for half-maximal velocity to Adenylate kinase III
# [2] = substrate: CNc1nc(N)c2ncn([C@@H]3O[C@H](COP(=O)(O)O)[C@@H](O)[C@H]3O)c2n1; experiment: as §1
# [3] = substrate: CCNc1nc(N)c2ncn([C@@H]3O[C@H](COP(=O)(O)O)[C@@H](O)[C@H]3O)c2n1; experiment: as §1
# [4] = substrate: Nc1nc(N)c2ncn([C@@H]3O[C@H](COP(=O)(O)O)[C@@H](O)[C@H]3O)c2n1; experiment: as §1
# [5] = substrate: C[C@H](OP(=O)(O)O)[C@H]1OC(n2cnc3c(N)ncnc32)[C@H](O)[C@@H]1O; experiment: as §1
# [6] = substrate: Nc1nc(Cl)nc2c1ncn2[C@@H]1O[C@H](COP(=O)(O)O)[C@@H](O)[C@H]1O; experiment: as §1
# [7] = substrate: C[C@@H]1[C@H](O)[C@@H](COP(=O)(O)O)O[C@H]1n1cnc2c(N)ncnc21; experiment: as §1
# [8] = substrate: Nc1ncnc2c1ncn2[C@@H]1O[C@H](COP(=O)(O)O)[C@@H](O)[C@H]1O; experiment: as §1
# [9] = substrate: Nc1ncnc2c1ncn2[C@@H]1O[C@H](CCP(=O)(O)O)[C@@H](O)[C@H]1O; experiment: as §1
# [10] = substrate: Nc1ncnc2c1ncn2[C@@H]1O[C@H](/C=C/P(=O)(O)O)[C@@H](O)[C@H]1O; experiment: as §1
# [11] = substrate: CN(C)c1nc(N)c2ncn(C3O[C@H](COP(=O)(O)O)[C@@H](O)[C@H]3O)c2n1; experiment: (§2) Concentration of compound for half-maximal velocity to Adenylate kinase M isoenzyme
# [12] = substrate: CNc1nc(N)c2ncn([C@@H]3O[C@H](COP(=O)(O)O)[C@@H](O)[C@H]3O)c2n1; experiment: as §2
# [13] = substrate: CCNc1nc(N)c2ncn([C@@H]3O[C@H](COP(=O)(O)O)[C@@H](O)[C@H]3O)c2n1; experiment: as §2
# [14] = substrate: Nc1nc(N)c2ncn([C@@H]3O[C@H](COP(=O)(O)O)[C@@H](O)[C@H]3O)c2n1; experiment: as §2
# [15] = substrate: C[C@H](OP(=O)(O)O)[C@H]1OC(n2cnc3c(N)ncnc32)[C@H](O)[C@@H]1O; experiment: as §2
# [16] = substrate: Nc1nc(Cl)nc2c1ncn2[C@@H]1O[C@H](COP(=O)(O)O)[C@@H](O)[C@H]1O; experiment: as §2
# [17] = substrate: C[C@@H]1[C@H](O)[C@@H](COP(=O)(O)O)O[C@H]1n1cnc2c(N)ncnc21; experiment: as §2
# [18] = substrate: Nc1ncnc2c1ncn2[C@@H]1O[C@H](COP(=O)(O)O)[C@@H](O)[C@H]1O; experiment: as §2
# [19] = substrate: Nc1ncnc2c1ncn2[C@@H]1O[C@H](CCP(=O)(O)O)[C@@H](O)[C@H]1O; experiment: as §2
# [20] = substrate: Nc1ncnc2c1ncn2[C@@H]1O[C@H](/C=C/P(=O)(O)O)[C@@H](O)[C@H]1O; experiment: as §2
Protein,Km [1] [µM],Km [2] [µM],Km [3] [µM],Km [4] [µM],Km [5] [µM],Km [6] [µM],Km [7] [µM],Km [8] [µM],Km [9] [µM],Km [10] [µM],Km [11] [µM],Km [12] [µM],Km [13] [µM],Km [14] [µM],Km [15] [µM],Km [16] [µM],Km [17] [µM],Km [18] [µM],Km [19] [µM],Km [20] [µM]
"GTP:AMP phosphotransferase AK3, mitochondrial (Rattus norvegicus), P29411 (protein) MGASGRLLRAVIMGAPGSGKGTGSSRITKHFELKHLSSGDLLRQNMLQGTEIAVLAKSFIDQGKLIPDDDMTRLALHELKNLTQCSWLLDGFPRTLPQAEALDRVYQIDTVINLNVPFEVIKLRLTARWIHPASGRVYNIEFNPPKTVGIDDLTGEPLIQREDDKPETVIKRLKAYEAQTEPVLQYYQKKGVLETFSGTETNKIRPHVYSFLQMKVPETIQKASVTP",830,3700,5400,1900,1100,1600,790,80,2200,1400,–,–,–,–,–,–,–,–,–,–
"Adenylate kinase isoenzyme 1 (Rattus norvegicus), P39069 (protein) MEDKLKKAKIIFVVGGPGSGKGTQCEKIVQKYGYTHLSTGDLLRAEVSSGSSRGKMLSSIMEKGELVPLETVLDMLRDAMLAKVDSSNGFLIDGYPREVKQGEEFERKIAQPTLLLYVDAGPETMTQRLLKRGETSGRVDDNEETIKKRLETYYKATEPVISFYDKRGIVRKVNAEGSVDTVFSQVCTYLDSLK",–,–,–,–,–,–,–,–,–,–,7500,2900,4200,3500,2000,2700,5500,580,4200,2000
